Assay results published in patent US20070081998A1 (published 2007).
Substitutions are numbered along the chain they refer to.

B1: Hu20C2A3 (veneered version of clone A3, IgG2m4 isotype) (antibody, V domains shown)
VH: QVTLKESGPGLLKPTQTLTLTCTLSGFSLSTSGMGVGWFRQPPGKGLEWLAHIWWDDDKSYNPSLKSRLTISKDTSKNQVVLTITNVDPVDTATYYCARRQLGTRGTDAMDYWGQGTTVTVSS
VL: DVVMTQTPLSLPVTPGQPASISCRSSQSILHSNGNTYLEWYLQKPGQSPQLLIYKVSNRFSGVPDRFSGSGSGTDFTLKISRVEAEDVGVYYCLQTTRVPLTFGQGTKLEIKR
notes: to be checked against the listing; also called Hu20C2A3 produced in CHO; Hu20C2A3 produced in Pichia
B2: clone A3 humanized by veneering, full IgG1 molecule (antibody, V domains shown)
VH: B1 VH
VL: DVVMTQTPLSLPVTPGQPASISCRSSQSILHSNGNTYLEWYLQKPGQSPQLLIYKVSNRFSGVPDRFSGSGSGTDFTLKISRVEAEDVGVYYCLQTTRVPLTFGQGTKLEIK
notes: also called Hu20C2A3 IgG1/kappa version
B3: 4a-A3 Fab (Fab, V domains shown)
VH: B1 VH with G10A, L12V, F39I, G46A, I84M, V87M
VL: B1 VL with T7S, Q17E
B4: 20C28B Fab (Fab, V domains shown)
VH: B1 VH with G10A, L12V, F39I, G46A, I84M, V87M, T104L, G106S, T107I
VL: B1 VL with T7S, Q17E
B5: 4b-H11 Fab (Fab, V domains shown)
VH: B1 VH with G10A, L12V, F39I, G46A, I84M, V87M, T104R, G106S, T107V
VL: B1 VL with T7S, Q17E
B6: 4b-A7 Fab (Fab, V domains shown)
VH: B1 VH with G10A, L12V, F39I, G46A, I84M, V87M, T104K, R105L, G106A, T107L
VL: B1 VL with T7S, Q17E
B7: Mouse-20C2 Fab (Fab, V domains shown)
VH: QVTLKESGPGILKPSQTLSLTCSLSGFSLSTSGMGVGWFRQPSGKGLEWLAHIWWDDDKSYNPSLKSRLTISKYTSRNQVFLTITSVDTADTATYYCARRQLGLRSIDAMDYWGQGTSVTVSS
VL: DVLMTQTPLSLPVSLGDQASISCRSSQSILHSNGNTYLEWYLQKPGQSPKLLIYKVSNRFSGVPDRFSGSGSGTDFTLKISRVEAEDLGVYYCFQGSLVPLTFGAGTKLELK
notes: Value in the Fab column of the row Mouse-20C2; also called murine 20C2
B8: 20C2-6A Fab (Fab, V domains shown)
VH: B1 VH with G10A, L12V, L24F, F39I, G46A, I84M, V87M, T104L, G106S, T107I
VL: B1 VL with T7S, Q17E, L94F, T96S, T97S
B9: 20C2-5A Fab (Fab, V domains shown)
VH: B1 VH with G10A, L12V, L24F, F39I, G46A, I84M, V87M, T104L, G106S, T107I
VL: B1 VL with T7S, Q17E, L94F, T96S, T97S, R98F
B10: 20C2-2A Fab (Fab, V domains shown)
VH: B1 VH with G10A, L12V, L24F, F39I, G46A, I84M, V87M, T104L, G106S, T107I
VL: B1 VL with T7S, Q17E, L94F, T96A
B11: Mouse-20C2 antibody (IgG1) (antibody, V domains shown)
VH: B7 VH
VL: B7 VL
notes: value in the column IgG1 #1; also called murine 20C2
B12: 20C2-6A IgG1 (antibody, V domains shown)
VH: B1 VH with G10A, L12V, L24F, F39I, G46A, I84M, V87M, T104L, G106S, T107I
VL: B2 VL with T7S, Q17E, L94F, T96S, T97S
notes: IgG1 humanized A version; also called 4P1-22
B13: 20C2-3A IgG1 (antibody, V domains shown)
VH: B1 VH with G10A, L12V, L24F, F39I, G46A, I84M, V87M, T104L, G106S, T107I
VL: B2 VL with T7S, Q17E, L94F, T96G, T97S, R98F, V99I, L101G
notes: IgG1 humanized A version; also called SJ-p3-16
B14: 20C2-8A IgG1 (antibody, V domains shown)
VH: B1 VH with G10A, L12V, L24F, F39I, G46A, I84M, V87M, T104L, G106S, T107I
VL: B2 VL with T7S, Q17E
notes: IgG1 humanized A version; also called SJ-p2-39
B15: 20C2-1A IgG1 (antibody, V domains shown)
VH: B1 VH with G10A, L12V, L24F, F39I, G46A, I84M, V87M, T104L, G106S, T107I
VL: B2 VL with T7S, Q17E, L94F, T96A, T97S
notes: IgG1 humanized A version; also called SJ-p2-60
B16: 20C2-2A IgG1 (antibody, V domains shown)
VH: B1 VH with G10A, L12V, L24F, F39I, G46A, I84M, V87M, T104L, G106S, T107I
VL: B2 VL with T7S, Q17E, L94F, T96A
notes: IgG1 humanized A version; also called SJ-p1-18
B17: 20C2-6B IgG1 (antibody, V domains shown)
VH: B1 VH with G10A, L12V, F39I, G46A, I84M, V87M, T104L, G106S, T107I
VL: B2 VL with T7S, Q17E, L94F, T96S, T97S
notes: IgG1 humanized B version; also called 4P1-22
B18: 20C2-24A IgG1 (antibody, V domains shown)
VH: B1 VH with G10A, L12V, L24F, F39I, G46A, I84M, V87M, T104L, G106S, T107I
VL: B2 VL with T7S, Q17E, L94G, R98L
notes: IgG1 humanized A version; also called SJ-p2-44
B19: 20C2-8B IgG1 (antibody, V domains shown)
VH: B1 VH with G10A, L12V, F39I, G46A, I84M, V87M, T104L, G106S, T107I
VL: B2 VL with T7S, Q17E
notes: IgG1 humanized B version; also called SJ-p2-39
B20: 20C2-5A IgG1 (antibody, V domains shown)
VH: B1 VH with G10A, L12V, L24F, F39I, G46A, I84M, V87M, T104L, G106S, T107I
VL: B2 VL with T7S, Q17E, L94F, T96S, T97S, R98F
notes: IgG1 humanized A version; also called SJ-p2-1F

Target: T1, biotin-Aβ1-20 (UniProt P05067 672-691, not fully specified; biotin (site not stated))
T1 construct: domain: Aβ1-20; BIACORE antigen standing for monomeric Aβ peptide; also called biotinylated-Aβ1-20
T1 peptide (looked up): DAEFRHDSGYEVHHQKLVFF
Experiment: BIACORE

Binder	binding result
B1	binds
B2	binds

What follows are binders tested against T2, biotinylated ADDL (bADDL) (UniProt P05067 672-713, N-terminal biotin) (assay: cell-based or functional assay).

Binder	inhibition of bADDL binding to primary hippocampal neurons (alkaline phosphatase-streptavidin luminescence)
B1	0.16 antibody to peptide ratio

The binders below were run against T2, biotinylated ADDL (bADDL) (assay: BIACORE, Fab fragment against bADDL).

Binder	Kd
B3	0.0823 nM
B4	1.1 nM
B5	1.05 nM
B6	0.376 nM

What follows are binders tested against T2, biotinylated ADDL (bADDL) (assay: BIACORE, bADDL as antigen; column Fab).

Binder	Kd
B7	62 nM
B8	42 nM
B9	41 nM
B10	28 nM

The binders below were run against T2, biotinylated ADDL (bADDL) (assay: BIACORE, bADDL as antigen; column IgG1 #1).

Binder	Kd
B11	4.1 nM
B12	0.0043 nM
B13	3.7 nM
B14	0.003 nM
B15	0.075 nM
B16	0.015 nM
B17	0.053 nM
B18	0.114 nM
B19	0.013 nM
B20	0.317 nM

The binders below were run against T2, biotinylated ADDL (bADDL) (assay: BIACORE, bADDL as antigen; column IgG1 #2).

Binder	Kd
B12	0.024 nM
B14	0.0007 nM
B16	0.0003 nM
B19	0.0008 nM
B20	0.068 nM

Target: T1, biotin-Aβ1-20
Experiment: BIACORE, Fab fragment against biotinylated-Aβ1-20

Binder	Kd
B3	0.849 nM
B4	1.1 nM
B5	1.33 nM
B6	1.72 nM

What follows are binders tested against T3, Aβ-derived diffusible ligands (ADDLs) (UniProt P05067 672-713) (assay: ELISA; reference is binding of the same antibody to Aβ40 monomer).
T3 construct: domain: Aβ1-42; Soluble oligomers of Aβ1-42
Procedure: Affinity maturation was carried out to improve affinity and improve preferential binding to ADDL. To evaluate ADDL binding affinity of the humanized antibodies, BIACORE™ and titration ELISAs were conducted as disclosed herein. Briefly, Streptavidin-coated, 96-well microtiter plates (Sigma, St. Louis, Mo.) were coated with 10% biotinylated ADDL antigen (1 μM). A series of 2-fold dilutions of purified antibody, starting at 500 ng/mL was added to the ADDL captured plates and the plates were incubated for 2 hours at 25° C. […] A rabbit anti-goat IgG (H+L) HRP-conjugated (Bethyl Laboratories, Inc., Montgomery, Tex.) detection antibody was then added at a 1/2000 dilution in blocking solution and incubated for 1 hour at room temperature. After washing with PBS, HRP substrate, 3,3′,5′5-tetramethylbenzidine (ready-to-use TMB; Sigma, St. Louis, Mo.) was added and the reaction was stopped after 10 minutes with 0.5 N H₂SO₄. Absorbance at wavelength of 450 nm was read in a plate reader (model VICTOR V; Perkin Elmer, Boston, Mass.) and data were processed using EXCEL® work sheet.

Binder	fold preference for ADDL binding versus Aβ40 monomer binding
B1	6 fold
